The target in the assay is BswR (Bacterial SWarming Regulator), PA2780 (Pseudomonas aeruginosa). The assay can be described thus: SEC; gel filtration profile during protein purification; HiLoad Superdex 75 26/60; 20 mM Tris pH 7.5, 200 mM NaCl, 5 mM beta-ME. Background: In gel filtration, larger molecules generally elute earlier.

“BswR (Bacterial SWarming Regulator), PA2780 (natural protein)” had a stoichiometry N of 2.

The stoichiometry N is a count of units in the complex or per binding partner.

The values are drawn from article PMC3985676.
